Test results as given in the DeepSol protein solubility set.

Assay: soluble on expression in E. coli; label from the status in PepcDB or PDB records

Which “soluble on expression in E. coli” value does the source give for “MKFILRLGLALLTGFVSVSTASAQAYGTADTNAPELRVPKSVQPAFDYWMRDTWATLGPDGYYYITGTTSTPDRHFPGQRHCWDWNDGLYLWRSKDLKIWEAMGRIWSMEKDGTWQKDPKVYKEGEKYAKKSINNDPMDNRFHAVWAPEMHYIKSAKNWFIVACMNQSAGGRGSFILRSTTGKPEGPYENIEGNEDKAIFPNIDGSLFEDTDGTVYFVGHNHYIARMKPDMSGLAEEIKTLKESKYSPEPYVEGAFIFKYDGKYHLVQAIWAHRTVKGDTYVEKEGLTNKKTRYSYDCIIATADNVYGPYGKRYNAITGGGHNNLFQDKDGNWWATMFFNPRGAQAAEYKVTCRPGLIPMLYENGKFKPNHNYQAK” here?
Its value is “not soluble”.

For “MNVTFETTICAWDEKIPALLIRLVNTLLFCRTEEELRQSINKLRETAELDEFFTYGYGSHHFWCNQRISKGSMQFIQSRLFIATF”, which “soluble on expression in E. coli” value is on record?
The value was “not soluble”.

For “SAQKEEAAVATEAASQNGEDLENLDDPEKLKELIELPPFEIVTGERLPANFFKFQFRNVEYSSGRNKTFLCYVVEAQGKGGQVQASRGYLEDEHAAAHAEEAFFNTILPAFDPALRYNVTWYVSSSPCAACADRIIKTLSKTKNLRLLILVGRLFMWEEPEIQAALKKLKEAGCKLRIMKPQDFEYVWQNFVEQEEGESKAFQPWEDIQENFLYYEEKLADILK”, which “soluble on expression in E. coli” value is on record?
Its value is “soluble”.

For “MSLSMITLWGRNNSTNVKKVLLTLEELELPYEQILAGREFGINHDADFLAMNPNGLVPLLRDDESDLILWESNAIVRYLAAQYGQKRLWIDSPARRAEAEKWMDWANQTLSNAHRGILMGLVRTPPEERDQAAIDASCKECDALFALLDAELAKVKWFSGDEFGVGDIAIAPFIYNLFNVGLTWTPRPNLQRWYQQLTERPAVRKVVMIPVSEGHHHHHH”, which “soluble on expression in E. coli” value is on record?
Its value is “soluble”.

For “MYHNSSQKRHWTFSSEEQLARLRADANRKFRCKAVANGKVLPNDPVFLEPHEEMTLCKYYEKRLLEFCSVFKPAMPRSVVGTACMYFKRFYLNNSVMEYHPRIIMLTCAFLACKVDEFNVSSPQFVGNLRESPLGQEKALEQILEYELLLIQQLNFHLIVHNPYRPFEGFLIDLKTRYPILENPEILRKTADDFLNRIALTDAYLLYTPSQIALTAILSSASRAGITMESYLSESLMLKENRTCLSQLLDIMKSMRNLVKKYEPPRSEEVAVLKQKLDRCHSAELALNVITKKRKGYEDDDYVSKKSKHEEEEWTDDDLVESL”, which “soluble on expression in E. coli” value is on record?
The value was “soluble”.

Which “soluble on expression in E. coli” value does the source give for “MVNKRTVTELSLFAGLIVSMHVAYYTIQNNPSLVAPHQRQELFYVRWLKEKIPALRPYGVTDDKTPKADQ” here?
The value was “not soluble”.

Which “soluble on expression in E. coli” value does the source give for “MGSDKIHHHHHHMEVDNKRRHSEDELKQEAVKKIKSQEPNYAYLETVVREKLDFDSEKICCITLSPLNVYCCLVCGHYYQGRHEKSPAFIHSIDENHHVFLNLTSLKFYMLPQNVQILHDGEVQLLNSIKFAAYPTYCPKDLEDFPRQCFDLSNRTYLNGFIGFTNAATYDYAHSVLLLISHMVPVRDHFLLNHFDNQGEFIKRLSICVKKIWSPKLFKHHLSVDDFVSYLKVREGLNLNPIDPRLFLLWLFNKICSSSNDLKSILNHSCKGKVKIAKVENKPEASESVTGKVIVKPFWVLTLDLPEFSPFEDGNSVDDLPQINITKLLTKFTKSRSSSTSTVFELTRLPQFLIFHFNRFDRNSDHPVKNRNQTLVEFSSELEILHVKYRLKANVVHVVIKQPSTDGNAFNGDEKSHWITQLYDNKSEKWIEIDGINTTEREAELLFLKETFIQVWEKQE” here?
The value was “not soluble”.

Which “soluble on expression in E. coli” value does the source give for “MGHHHHHHSHEWGTVQLRGSWRVGQTAGGSRNFASYPTNPCFPFSVPEGPGPRCVRITLHQHCRPSDTEFHPIGFHIFQVPEGGRSQDAPPLLLQEPLLSCVPHRYAQEVSRLCLLPAGTYKVVPSTYLPDTEGAFTVTIATRIDRPSIHSQEMLGQFLQEVSVMAVMKT” here?
Its value is “not soluble”.

For “MNNQTILIIGAAGNNGMATIESLVSKQPKDTIVAAVRSTDKATLLKKKFPSIKTVIIDLDKPETLTAAYEGVTKVFMIPGNVEEREQHAKNAIDAAVQAGTVKQFLFYSVVGAEYEAILFAQQFRAGEKYLEQSGLNWTHLRTIFFQDNFFGWADGVKQGGLYFGIREGSFAPLNVADIGEMAANILTTSGHEHKAYNITGSELLSGEEMAKVFTDVTGKTVAYISPTKQQTLDSLLSTGWPQWQAEGMLELFEVFATNQAAVVSPDGEQLLGRPLTTLKDFIASNKAAFV”, which “soluble on expression in E. coli” value is on record?
Its value is “not soluble”.

For “GMENEENSAREQEADDFLHIASVKEDWGGDGRGRMNLSGRRTAIAKEYLPRQYQFFDTNTVMEKQGWRVRGMPDNIAPGSRRLLTWHDSGASTSRVVLPPKFEAPSGIFTADLEIFVIKGAIQLGEWQLNKHSYSFIPAGVRIGSWKVLGGEEAEILWMENGSVPLEYKYAQEDHPDARLSDFIPALDSKLLPWGKADTVQFVQANKKWLRKDINGGGVWLLAILPHFDNKYQMIQPYNEEGYCLTGYCDVGDYRIVKDHYWYCPSFSTLPRHITDDGGLFFVRVDRDLSKVATVLSYAPQDT”, which “soluble on expression in E. coli” value is on record?
Its value is “soluble”.

For “MSLNSSFFKMMEKRSYNRFNQEQKAAITYDMKKHLRIIAGAGSGKTQTICAKAVYLMTQKQVDEERILMITFTRNAANELKKRVDNFSQRKTAVHIGTFHSIFFRIYNEICRKFPEVAMQGIQGDFSKDTAQKVNAVLQQLIRKYNLYIFDQYGEKTIASRLDYWQNMNLSVEEMVQLVKEKYDSIDKNARQPISERLYGLLTELQEQKRSQQLLEFNDVLQNLKSALENEEIQHYIGQKYDYLFIDEFQDTNPLQWEIVKRMTKENRIKLIVVGDDDQSIYGFRGSEPAYIKNFEKEYPTKTLFLLTNYRSRAAIVQGANRLISYNKNDRIPKAMIPAQKEAGVMEAYLFSDTKAESQWLIKQIQTFIQKNGKYKESIILYRSASQTQQLVQSLLKTNIPFVLEADSPYEGIFGIKSFQHFYQKIVHWQTALNLQKKNQAYQQLLRQLMADCYLKKSECDQYFSPKYQNIAVADYILSISPNLKSKSAEIREFEEALRKTDQHQEIYSLVQSYLHLPRIAKEIDQSDQEWIREEVKQHATFRRLQALSQETQATAKELKTREGHHHHHH”, which “soluble on expression in E. coli” value is on record?
Its value is “not soluble”.

For “MYTPLYRPRYPEGLDPGIQHGVLRLLNPDPRVGEAEHRLENLLEPPYGGPPPPYYQSRPLRPYCYVSAEAGLNNLDPAVPRFVEVLSQPLVYLSPQETLV”, which “soluble on expression in E. coli” value is on record?
Its value is “soluble”.

With “MSLAEVAEVSEQDFGEILAQTRQFVRTAVVPREQEILDGDRVPDDLRDQARKMGLFGYAIPQQWGGLGLNLMQDVELAMELGYTSLALRSMFGTNNGIAGQVLVGFGTEAQKARWLEPMAAGDVVASFALTEPGAGSNPAGLRTKAVADGDNWVISGQKRFITNAPVADLFVVFARTRPADDQGPGIAVFLVPADAAGVQVGAKDAKMGQEGAWTADVSFDDVRVGGDALIGGSENIGYRAAMTSLARGRVHIAALAVGAAQRALDESVSYAATATQGGTPIGNFQLVQAMLADQQTEVLAGRALVREAARLWVTGEDRRVAPSAAKLYCTEMAGRVADLAVQVHGGSGYMRGVPVERIYRDVRLLRLYEGTSEIQRLIIGSNLVKAAQREGHHHHHH” as the sequence, how does the “soluble on expression in E. coli” value read?
The value was “soluble”.

Which “soluble on expression in E. coli” value does the source give for “QAMLIGEIMDLNLKNFLEDREEIIRDAKRKDEKSFKDFKKIVEEIKERENKDKIVCDFTEYNPLHKGHKYALEKGKEHGIFISVLPGPLERSGRGIPYFLNRYIRAEMAIRAGADIVVEGPPMGIMGSGQYMRCLIKMFYSLGAEIIPRGYIPEKTMEKVIDCINKGYHIQVKPYKIICIETGEILGEKLNIDNYVIASMSQMIYKLNREGLKFNPKFVFVKRLEGISGTKIREAIFSGKFEDIKNMLPKTTLSILKELYDNGKLNELILKRFEDRILETANEYDLYEYLPSNVAEILEKKRPFNNIEEIKNSLPYGFSRHFRERILSKLEARIPNETLSKYINNYPAKIKILAVKL” here?
The value was “soluble”.

With “MAHHHHHHMADGAAMSLSGQRIPLLKPTLSKWSRQLRSDIYDELLKLPLRYALHDFRTLQAHIHAVPATATNASCTAAAGERLPPGVYHASSGLSSASPDAPAYYAVAGRDSAVGYAPPLGPADPVDVIPFFVHRSSNGHLPGKVYSMNAKTLMPAFYMRIQNIEGDMFRFEEELMKIFPTKKIFVRSHSVYVYNVNLDGRAVLHHWLLGLGF” as the sequence, how does the “soluble on expression in E. coli” value read?
Its value is “soluble”.

With “HKEDKEDFAELSGIAVPAEITAEDGTMFKEALLFTHRGLSGPSVLQISSFWKAGQKVSINLVPNEDIALLLERSLEKHPNQSLKNTLAKVLPKRLVEVLIERKELMDKPLKQFNPKELASVVERLENWSIAPNGTEGYRTAEVTLGGVDTDHLSSKTMECKNIKGLYFIGEVMDVTGWLGGYNFQWCWSSGFVAGQWV” as the sequence, how does the “soluble on expression in E. coli” value read?
The value was “not soluble”.

With “MLSANRDCAFGRVHDFAGIRNAGDFRDKVPMHTYAQLQPWIERAQHESGAVLTTRPPLFFERSSGNSALQKLIPYTPEFLAQLQGSLTVWLADMYRQVPEISHGSGYWSMSPPLQQPAVSANGIPVGSVSDLQYLQGSAIAGLAGTLLIPDLAHDVVHWRRQTLLALVADADLSFISVWSPTFLTSLLQPLFDTERQTCAWLEAMLPASRKLALRHARAQGVFTELWPRLAAVSCWMDGPSHGYAVQLAALFPQARWLPKGLFATEGVVSVPFGEGQGCPLAIGSHYLEFVGDDGLPRGARSLRMGETAQVLLTTGAGLYRYVLGDRVRMVGNHAGTPRVAFVGRSASACDLVGEKLDEQLVEGVLAQCIDSADSACLIPDSRNTPPHYVALVSTSAVTPGQVLANSIETVLQGSFHYAHARTLGQLGPLRVRFVSGGAQTLAALLQRAAEATGVRAGDVKPRALISRLDTANALLAITEEFECPHL” as the sequence, how does the “soluble on expression in E. coli” value read?
Its value is “not soluble”.

Which “soluble on expression in E. coli” value does the source give for “MEKVVCIGCGVTIQTEDKTGLGYAPPASLTKENVICQRCFRLKNYNEIQDVSLTDDDFLNILHGIGETDSLVVKIVDIFDFNGSWINGLQRLVGGNPILLVGNKADILPKSLKRERLIQWMKREAKELGLKPVDVFLVSAGRGQGIREVIDAIEHYRNGKDVYVVGCTNVGKSTFINRIIKEVSGEEDIITTSQFPGTTLDAIEIPLDDGSSLYDTPGIINNHQMAHYVNKKDLKILSPKKELKPRTFQLNDQQTLYFGGLARFDYVSGERSPFICYMPNELMIHRTKLENADALYEKHAGELLTPPGKDEMDEFPELVAHTFTIKDKKTDIVFSGLGWVTVHDADKKVTAYAPKGVHVFVRRSLI” here?
Its value is “not soluble”.

Which “soluble on expression in E. coli” value does the source give for “GPGSMADFPKLARIKLDDENMEKIHCAARKGQTEEVKRLVEQGIDPAIPNRFGCTALHLACKHGQIETAKYLSSICDVHGAWHGQRPLHLAVLSNKEVLVEALVEGARERGRNVEIMLNECDDVSVDDIGEHQKHTDGQTALHWCVALGDNYLPMLRLLIRLGASPTAKNKENVTSMMYAMEFKNEAAMEEMVKGVKPQQLRLDYQDKEGRTHLHYAILHNRQDYAMRFIEMGHDPQMEDDNHETPLFLALRAAMPDLLTYLLQNVDSFSVQQAPFHNGSVMVAERIQWLEFATDEQARTECIRLFQKRLDEVSFRPEETEKKRAKPTVKKMKLAPSAPLRSRSIGNASALRSRSIGGRISGK” here?
Its value is “soluble”.
